Data on seven substances can be found in patent publication US6383782.

The term IC50 denotes the concentration that gives 50% inhibition. Low readings indicate greater potency, high ones weaker potency. Broadly, the Kd is the free concentration of one partner at which half of the binding sites on the other are occupied at equilibrium, for simple one-to-one binding. High values mean lower affinity, low ones higher affinity.

Assay [1] concerns the target MCP-1 receptor B (CCR2B) (human) (UniProt P41597). Description: cell-based or functional assay.
For assay [2] the target is unchanged. Description: competition with 100 pM 125I-MCP-1 on CHO-CCR2B membranes, filtration; at least 2 assays.
Assay [3] has the same target. The experiment in a line: competition with 100 pM 125I-MCP-1 on CHO-CCR2B membranes, filtration; mean of 8 assays.
For assay [4] the target is unchanged. Description: competition with 100 pM 125I-MCP-1 on CHO-CCR2B membranes, filtration; mean of 18 assays.
The target is the same in assay [5]. Description: equilibrium binding of 125I-MCP-1 to CHO-CCR2B membranes.
For assay [6] the target is unchanged. Description: cold competition of unlabelled MCP-1 against 100 pM 125I-MCP-1 on CHO-CCR2B membranes.

With “pGlu-MCP1(9-76) (SEQ ID NO: 32) (from UniProt P13500 32-99) (ligand)”, the Calcium flux (IC50), THP-1 cells in assay [1] came to 117 nM. In addition, the IC50 in assay [2] is 2.6 nM.
“Met-MCP1(9-76) (SEQ ID NO: 31) (from UniProt P13500 32-99) (ligand)” showed a half-inhibitory concentration (IC50) in assay [2] of 3.2 nM. In other words, the single-digit nanomolar range.
“[V9T]MCP1(9-76) (SEQ ID NO: 29) (from UniProt P13500 33-99) (ligand)”: the Chemotaxis (IC50), THP-1 cells, 1 nM MCP-1 in assay [1] was 21 nM. In addition, the IC50 in assay [3] came to 2 nM.
As to “[V9G]MCP1(9-76) (SEQ ID NO: 26) (from UniProt P13500 33-99) (ligand)”, the Chemotaxis (IC50), THP-1 cells, 1 nM MCP-1 in assay [1] came out at 10.9 nM. In assay [3], this substance had a concentration for half-maximal inhibition (IC50) of 3.2 nM.
Consider “[V9A]MCP1(9-76) (SEQ ID NO: 9) (from UniProt P13500 33-99) (ligand)”, for which, in assay [1], the Calcium flux (IC50), THP-1 cells stood at 109 nM and the Chemotaxis (IC50), THP-1 cells, 1 nM MCP-1 is 23 nM. This substance also showed an IC50 in assay [4] of 2.5 nM.
As to “Monocyte Chemoattractant Protein-1 (MCP-1) (from UniProt P13500 24-99) (ligand)”, in assay [1], the rise in [Ca2+]i in THP-1 cells (EC50) came to 2 nM. In assay [5], this substance displayed a Kd of 0.12 nM. Further, the half-inhibitory concentration (IC50) in assay [6] turned out to be 0.11 nM.
Take “MCP1(9-76) (SEQ ID NO: 30) (from UniProt P13500 32-99) (ligand)”: in assay [1], the Calcium flux (IC50), THP-1 cells was determined as 45 nM and the Chemotaxis (IC50), THP-1 cells, 1 nM MCP-1 came to 12 nM. Also, the half-inhibitory concentration (IC50) in assay [4] stood at 1.9 nM.
